This passage reports peptide exchange yield results from US20180282393A1 (IMMATICS BIOTECHNOLOGIES, published 2018).

The assay concerns the target T1, HLA-A*02:01 (human).
T1 construct: Captured on streptavidin plates and detected with anti-b2m; also called peptide-receptive MHC molecules; MHC class I
Description: UV-ligand exchange, anti-b2m ELISA; peptide exchange yield grade (+ >=10%, ++ >=20%, +++ >=50, ++++ >=75%). The source says:
Candidate peptides for T cell based therapies according to the present invention were further tested for their MHC binding capacity (affinity). The individual peptide-MHC complexes were produced by UV-ligand exchange, where a UV-sensitive peptide is cleaved upon UV-irradiation, and exchanged with the peptide of interest as analyzed. Only peptide candidates that can effectively bind and stabilize the peptide-receptive MHC molecules prevent dissociation of the MHC complexes. To determine the yield of the exchange reaction, an ELISA was performed based on the detection of the light chain (β2m) of stabilized MHC complexes. The assay was performed as generally described in Rodenko et al. (Rodenko et al., 2006).
96 well MAXISorp plates (NUNC) were coated over night with 2 ug/ml streptavidin in PBS at room temperature, washed 4× and blocked for 1 h at 37° C. in 2% BSA containing blocking buffer. Refolded HLA-A*02:01/MLA-001 monomers served as standards, covering the range of 15-500 ng/ml. Peptide-MHC monomers of the UV-exchange reaction were diluted 100 fold in blocking buffer. Samples were incubated for 1 h at 37° C., washed four times, incubated with 2 ug/ml HRP conjugated anti-β2m for 1 h at 37° C., washed again and detected with TMB solution that is stopped with […]. Absorption was measured at 450 nm. Candidate peptides that show a high exchange yield (preferably higher than 50%, most preferred higher than 75%) are generally preferred for a generation and production of antibodies or fragments thereof, and/or T cell receptors or fragments thereof, as they show sufficient avidity to the MHC molecules and prevent dissociation of the MHC complexes.
On the technique in general: An ELISA detects its analyte on a solid surface through an enzyme-linked reagent.
Molecule VLINTSVTL registered a peptide exchange yield of 50 to 75%.

In the case of PAVLQSSGLYSL, the peptide exchange yield lay within 20 to 50%. Regarding ALADGVVSQA, the peptide exchange yield lay in the range of 50 to 75%. The same measure for HLIAEIHTA (also called PTHL-001): 50 to 75%; for SMNGGVFAV: 20 to 50%. The same measure for KITEAIQYV: 50 to 75%. The value for SLAESLDQA was 50 to 75%. Turning to NIIELVHQV, the peptide exchange yield is ≥ 75%. The same measure for AVLPHVDQV: 50 to 75%; for VLVPYEPPQV: 20 to 50%. The same measure for FVLDTSESV: 50 to 75%; for FLPPAQVTV: 20 to 50%. As to SLADSLYNL, the peptide exchange yield was in the range of 20 to 50%.

On to ALQEALENA, for which the peptide exchange yield lay in the range of 20 to 50%. The value for FLDNGPKTI was 50 to 75%. For the molecule ILASLATSV, the peptide exchange yield was 50 to 75%. The same measure for SLDENSDQQV: 50 to 75%; for SILRHVAEV: 20 to 50%.

In the case of KLIDDVHRL, the peptide exchange yield was ≥ 75%. KVANIIAEV displayed a peptide exchange yield of 20 to 50%. The value for GLLVGSEKVTM was 50 to 75%; that for ALLDGGSEAYWRV was 50 to 75%; that for GQDVGRYQV was 20 to 50%. The value for SIYEYYHAL was 50 to 75%; that for ASDPILYRPVAV was 50 to 75%; that for HLLGHLEQA was 50 to 75%. The value for KVADYIPQL was 50 to 75%.
